{"source": "patent US20170253670A1", "about": "(Hoffmann-La Roche, published 2017)", "binders": {"B1": {"name": "15H7 Fab (Fab, V domains shown)", "VH": "QVQLVQSGAEVKKPGASVKVSCKASGYTFTSYYMHWVRQAPGQGLEWMGIINPSGGSTSYAQKFQGRVTMTRDTSTSTVYMELSSLRSEDTAVYYCARNYYLFSTSFDYWGQGTLVTVSS", "VL": "QAVVTQEPSLTVSPGGTVTLTCGSSTGAVTTSNYANWVQEKPGQAFRGLIGGTNKRAPGTPARFSGSLLGGKAALTLSGAQPEDEAEYYCALWYSNLWVFGGGTKLTVL", "notes": "as m35"}, "B2": {"name": "pSCHLI372 anti-BCMA IgG (antibody, V domains shown)", "VH": "EVQLVESGGGLVKPGGSLRLSCAASGFTFSNSGMIWVRQAPGKGLEWVGHIRSKTDGGTTDYAAPVKGRFTISRDDSKNTLYLQMNSLKTEDTAVYYCTTGGSGSFDYWGQGTLVTVSS", "VL": "B1 VL", "notes": "also called pSCHLI372 IgG; anti-BCMA IgG pSCHLI372"}, "B3": {"name": "pSCHLI373 anti-BCMA IgG (antibody, V domains shown)", "VH": "EVQLVESGGGLVKPGGSLRLSCAASGFSFSNSWMNWVRQAPGKGLEWVGTIRQKTYGGTTDYAAPVKGRFTISRDDSKNTLYLQMNSLKTEDTAVYYCTTGGLFGYWDYWGQGTLVTVSS", "VL": "B1 VL"}, "B4": {"name": "pSCHLI333 anti-BCMA IgG (antibody, V domains shown)", "VH": "QVQLVQSGAEVKKPGASVKVSCKASGYMFSSFGMSWVRQAPGQGLEWMGWIYPVGQGTWYAQKFQGRVTMTRDTSTSTVYMELSSLRSEDTAVYYCARVSYPPSHFDYWGQGTLVTVSS", "VL": "B1 VL"}, "B5": {"name": "9D11 FolR1 TCB 1+1 head-to-tail (crossfab) (bispecific antibody, V domains shown)", "VH": "QVQLVQSGAEVKKPGASVKVSCKASGYTFTSYYMHWVRQAPGQGLEWMGIINPSGGPTSYAQKFQGRVTMTRDTSTSTVYMELSSLRSEDTAVYYCARGDFAWLDYWGQGTLVTVSS", "VL": "not shown", "notes": "1+1 head-to-tail with CD3 CrossFab on the same arm"}, "B6": {"name": "14E4 IgG (antibody, V domains shown)", "VH": "not shown", "VL": "EIVLTQSPGTLSLSPGERATLSCRASQSVSSSYLAWYQQKPGQAPRLLIYGASSRATGIPDRFSGSGSGTDSTLTISRLEPEDFAVYYCQQPTSSPITFGQGTKVEIK", "notes": "human IgG1"}, "B7": {"name": "9D11 TCB S100aA (bispecific antibody, human IgG1, kappa, L234A L235A)", "heavy 1": "not shown", "heavy 2": "QVQLVQSGAEVKKPGASVKVSCKASGYTFTSYYMHWVRQAPGQGLEWMGIINPSGGPTSYAQKFQGRVTMTRDTSTSTVYMELSSLRSEDTAVYYCARGDFAWLDYWGQGTLVTVSSASTKGPSVFPLAPSSKSTSGGTAALGCLVKDYFPEPVTVSWNSGALTSGVHTFPAVLQSSGLYSLSSVVTVPSSSLGTQTYICNVNHKPSNTKVDKKVEPKSCDKTHTCPPCPAPEAAGGPSVFLFPPKPKDTLMISRTPEVTCVVVDVSHEDPEVKFNWYVDGVEVHNAKTKPREEQYNSTYRVVSVLTVLHQDWLNGKEYKCKVSNKALGAPIEKTISKAKGQPREPQVCTLPPSRDELTKNQVSLSCAVKGFYPSDIAVEWESNGQPENNYKTTPPVLDSDGSFFLVSKLTVDKSRWQQGNVFSCSVMHEALHNHYTQKSLSLSPGK", "light 1": "not shown", "light 2": "QAVVTQEPSLTVSPGGTVTLTCGSSTGAVTTSNYANWVQEKPGQAFRGLIGGTNKRAPGTPARFSGSLLGGKAALTLSGAQPEDEAEYYCALWYSNLWVFGGGTKLTVLSSASTKGPSVFPLAPSSKSTSGGTAALGCLVKDYFPEPVTVSWNSGALTSGVHTFPAVLQSSGLYSLSSVVTVPSSSLGTQTYICNVNHKPSNTKVDKKVEPKSC"}}, "key": {"[1]": {"biological_target": "T1, human FolR1 monovalent Fc fusion, biotinylated (human, UniProt P15328 25-233, biotin on C-terminal Avi-tag ; biotin on the C-terminal Avi-tag of the Fc-knob chain (tag not in the letters))", "T1 construct": "ECD linked to hinge of Fc-knob, co-expressed with Fc-hole; also called huFolR1; huFolR1-Fc; not shown: hinge-Fc(knob)-Avi-tag fused to the ECD, and the co-expressed Fc(hole) chain", "T1 sequence (P15328 25-233 limits assumed)": "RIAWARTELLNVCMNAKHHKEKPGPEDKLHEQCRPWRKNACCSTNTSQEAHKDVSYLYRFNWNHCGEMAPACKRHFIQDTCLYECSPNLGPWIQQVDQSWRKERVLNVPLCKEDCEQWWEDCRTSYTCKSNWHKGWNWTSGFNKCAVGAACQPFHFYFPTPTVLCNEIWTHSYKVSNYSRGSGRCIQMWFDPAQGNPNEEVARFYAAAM", "assay": "SPR ProteOn, Fab analyte, antigen on chip", "description": "Immobilization of antigens (ligand): Recombinant antigens were diluted with PBST (10 mM phosphate, 150 mM sodium chloride pH 7.4, 0.005% Tween 20) to 10 μg/ml, then injected at 30 μl/minute in vertical orientation. Injection of analytes: For ‘one-shot kinetics’ measurements, injection direction was changed to horizontal orientation, two-fold dilution series of purified Fab (varying concentration ranges) were injected simultaneously along separate channels 1-5, with association times of 200 s, and dissociation times of 600 s. Buffer (PBST) was injected along the sixth channel to provide an “in-line” blank for referencing. Association rate constants (kₒₙ) and dissociation rate constants (koff) were calculated using a simple one-to-one Langmuir binding model in ProteOn Manager v3.1 software by simultaneously fitting the association and dissociation sensorgrams. The equilibrium dissociation constant (KD) was calculated as the ratio koff/kₒₙ."}, "[2]": {"biological_target": "T2, recombinant human BCMA Fc(kih) (human, UniProt Q02223 4-53, biotin on avi-tag where coupled to SA chip ; biotin on the avi-tag of the Fc-knob chain where coupled to the SA chip (tag not in the letters))", "T2 construct": "also called huBCMA Fc(kih); huBCMA; not shown: human IgG1 hinge-Fc(knob)-avi fused to the ECD, and the unfused Fc(hole) chain", "T2 chain": "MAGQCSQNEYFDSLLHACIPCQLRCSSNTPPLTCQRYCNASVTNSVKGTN", "assay": "SPR Biacore, binder captured via anti-Fab, BCMA-Fc analyte"}, "[3]": {"biological_target": "T3, recombinant murine BCMA Fc(kih) (murine, UniProt O88472 2-49, biotinylated at the avi-tag of the Fc knob chain (not in the letters))", "T3 construct": "also called muBCMA Fc(kih); not shown: human IgG1 hinge-Fc(knob)-avi and the unfused Fc(hole) chain", "T3 chain": "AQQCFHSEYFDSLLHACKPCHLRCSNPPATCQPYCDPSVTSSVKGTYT", "assay": "SPR Biacore, binder captured via anti-Fab, BCMA-Fc analyte"}, "[4]": {"biological_target": "T2, recombinant human BCMA Fc(kih)", "assay": "SPR Biacore, bivalent avidity, BCMA-Fc on chip (Experiment 2)", "description": "(§1) Assessment of binding of anti-BCMA antibodies to recombinant BCMA by surface plasmon resonance (SPR) as follow. All SPR experiments were performed on a Biacore T200 at 25° C. with HBS-EP as running buffer (0.01 M HEPES pH 7.4, 0.15 M NaCl, 3 mM EDTA, 0.005% Surfactant P20, Biacore, Freiburg/Germany). The avidity of the interaction between anti-BCMA antibodies and recombinant BCMA Fc(kih) (human, cynomolgus and murine) was determined (Tables 38-40). Biotinylated recombinant human, cynomolgus and murine BCMA Fc(kih) were directly coupled on a SA chip following instructions (Biacore, Freiburg/Germany). The immobilization level ranged from 80 to 120 RU. […] The dissociation was monitored for 180 seconds. Bulk refractive index differences were corrected for by subtracting the response obtained on the reference flow cell. Here, the anti-BCMA antibodies were flown over an empty surface previously activated and deactivated as described in the standard amine coupling kit. Apparent kinetic constants were derived using the Biacore T200 Evaluation Software (v 1.0, Biacore AB, Uppsala/Sweden), to fit rate equations for 1:1 Langmuir binding by numerical integration, despite the bivalency of the interaction for comparison purposes."}, "[5]": {"biological_target": "T3, recombinant murine BCMA Fc(kih)", "assay": "SPR Biacore, bivalent avidity, BCMA-Fc on chip (Experiment 2)", "description": "as §1"}, "[6]": {"biological_target": "T2, recombinant human BCMA Fc(kih)", "assay": "SPR Biacore, bivalent avidity, BCMA-Fc on chip (Experiment 3)", "description": "as §1"}, "[7]": {"biological_target": "T3, recombinant murine BCMA Fc(kih)", "assay": "SPR Biacore, bivalent avidity, BCMA-Fc on chip (Experiment 3)", "description": "as §1"}, "Fc fused huTACI-R": {"biological_target": "T4, Fc fused huTACI-R (human, UniProt O14836 2-166, limits assumed)", "T4 construct": "also called human TACI receptor", "T4 sequence (looked up)": "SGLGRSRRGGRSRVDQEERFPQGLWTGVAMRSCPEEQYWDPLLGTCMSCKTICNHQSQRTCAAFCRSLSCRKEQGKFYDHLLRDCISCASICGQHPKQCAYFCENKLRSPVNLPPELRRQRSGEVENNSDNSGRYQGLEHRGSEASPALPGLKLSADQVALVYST", "assay": "SPR (Biacore T200), Fc fused huTACI-R on CM5 chip, IgG as analyte, reference-subtracted"}, "[8]": {"biological_target": "T2, recombinant human BCMA Fc(kih)", "assay": "SPR Biacore, bivalent avidity, BCMA-Fc on chip", "description": "as §1"}, "[9]": {"biological_target": "T3, recombinant murine BCMA Fc(kih)", "assay": "SPR Biacore, bivalent avidity, BCMA-Fc on chip", "description": "as §1"}, "[10]": {"biological_target": "T5, human FolR1 on cells (HeLa, SKOV3, HT-29, transfected HEK) (human, UniProt P15328 25-234)", "T5 sequence (P15328 25-234)": "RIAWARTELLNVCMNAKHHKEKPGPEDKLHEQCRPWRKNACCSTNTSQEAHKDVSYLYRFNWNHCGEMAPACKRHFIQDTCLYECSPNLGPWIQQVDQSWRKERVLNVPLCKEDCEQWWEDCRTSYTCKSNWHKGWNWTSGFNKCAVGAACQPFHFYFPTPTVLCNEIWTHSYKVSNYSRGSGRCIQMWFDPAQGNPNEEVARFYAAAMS", "assay": "cell-based or functional assay"}, "[11]": {"biological_target": "T5, human FolR1 on cells (HeLa, SKOV3, …)", "assay": "flow cytometry, HeLa cells", "description": "Target cells as indicated were harvested with Cell Dissociation Buffer, washed with PBS and resuspended in FACS buffer. The antibody staining was performed in a 96well round bottom plate. Therefore 200′000 cells were seeded per well. The plate was centrifuged for 4 min at 400 g and the supernatant was removed. The test antibodies were diluted in FACS buffer and 20 μl of the antibody solution were added to the cells for 30 min at 4° C."}, "[12]": {"biological_target": "T5, human FolR1 on cells (HeLa, SKOV3, …)", "assay": "flow cytometry on HeLa cells, fluorescently labeled anti-human secondary antibody"}, "[13]": {"biological_target": "T5, human FolR1 on cells (HeLa, SKOV3, …)", "assay": "cell-based or functional assay", "remark": "listed apart in the source"}}, "data": [{"binder": "B1", "values": [{"measurement": "Kd", "setting": "[1]", "result": 13.4, "unit": "nM"}]}, {"binder": "B2", "values": [{"measurement": "Kd", "setting": "[2]", "result": 114, "unit": "nM"}, {"measurement": "Kd", "setting": "[3]", "result": 1310, "unit": "nM"}, {"measurement": "Kd", "setting": "[4]", "result": 8.5, "unit": "nM"}, {"measurement": "Kd", "setting": "[5]", "result": 42.7, "unit": "nM"}, {"measurement": "Kd", "setting": "[6]", "result": 3.6, "unit": "nM"}, {"measurement": "Kd", "setting": "[7]", "result": 25.7, "unit": "nM"}, {"measurement": "binding result", "setting": "Fc fused huTACI-R", "result": "no binding"}]}, {"binder": "B3", "values": [{"measurement": "Kd", "setting": "[2]", "result": 135, "unit": "nM"}, {"measurement": "Kd", "setting": "[3]", "result": 724, "unit": "nM"}, {"measurement": "Kd", "setting": "[4]", "result": 23, "unit": "nM"}, {"measurement": "Kd", "setting": "[6]", "result": 12.1, "unit": "nM"}]}, {"binder": "B4", "values": [{"measurement": "Kd", "setting": "[8]", "result": 2.5, "unit": "nM"}, {"measurement": "Kd", "setting": "[9]", "result": 19.6, "unit": "nM"}]}, {"binder": "B5", "values": [{"measurement": "EC50 killing 24 h (pM), SKOV3", "setting": "[10]", "result": 4.73, "unit": "pM"}, {"measurement": "EC50", "setting": "[11]", "result": 44.2, "unit": "nM"}]}, {"binder": "B6", "values": [{"measurement": "binding result", "setting": "[12]", "result": "no binding (tested: 50 µg/ml)"}]}, {"binder": "B7", "values": [{"measurement": "EC50 killing 24 h, SKov-3", "setting": "[13]", "result": 0.00194, "unit": "nM"}]}]}
